In paper PMC6021111, “Murine leukemia virus p12 tethers the capsid-containing pre-integration complex to chromatin by binding directly to host nucleosomes in mitosis” (PLoS Pathogens, 2018):

What was measured:
[1] = tested on: double- and single-stranded calf thymus DNA; experiment: Pull-down with DNA-coated cellulose beads; type: binding; conditions: 293T lysates
Experimental: GST-p12 and IN-HA were expressed in 293T cells from pCAGGS/GST and pCMV4/HA-derived plasmids respectively, by transient transfection using Turbofect (Thermo Fisher Scientific). Approximately 24 h after transfection, cells were changed into fresh media and incubated overnight at 37°C. Cells were then washed and lysed in 20 mM Tris-HCl pH 8.0, 300 mM NaCl, 1 mM EDTA, 10% Glycerol, 1% Triton X-100, protease inhibitors. Lysis was facilitated by passing the lysates through a 19-gauge needle x7 and sonication, x7 pulses, 30 s ON and 30 s OFF, in an ice bath (Decon FS100). After sonication, the lysates were supplemented with 4 mM MgCl2 and 1 mM DTT, and incubated for a further 1 h at 4°C. The lysates were then clarified by centrifugation and diluted 1:3 in 20 mM Tris-HCl pH 8.0, 10% glycerol, 4 mM MgCl2 and 1 mM DTT. The lysates were then normalised based on total protein concentration using the Bradford protein assay (Bio-Rad). 0.7 ml aliquots of lysates at 0.7 mg/ml were incubated with calf thymus DNA-coated cellulose beads (100 μl/reaction of a 50% slurry) (Sigma) for 1 h at 4°C with end-over-end rotation. The beads were then washed three times in 20 mM Tris pH 8.0, 100 mM NaCl, 0.33 mM EDTA, 10% Glycerol, 0.33% Triton X-100, 4 mM MgCl2 and 1 mM DTT and re-suspended in 50 μl of x2 protein loading dye for SDS-PAGE and immunoblotting.

[2] = tested on: GST-p12 phosphorylation in 293T cells; experiment: GST-p12 phosphorylation by ProQ diamond / Sypro ruby staining; type: cell-based; conditions: PQ/SR ratio, 3 technical replicates; "at least"
Experimental: Firstly, GST-p12 pulled-down from mitotic cell lysates was analysed by SDS-PAGE followed by sequential staining with two fluorescent dyes, ProQ diamond (PQ) and Sypro Ruby (SR). PQ is a small molecule fluorophore that binds with high-specificity to phosphorylated proteins. SR binds all proteins and is useful as a total protein indicator. The ratio of PQ and SR dye signals provides a measure of the phosphorylation level with respect to the total amount protein. Viral p12 is known to be mainly phosphorylated at serine 61 within the CTD [19, 25]. We therefore compared the relative phosphorylation levels of GST-p12_WT with a S61A mutant. Compared to p12_S61A, p12_WT was at least 3-fold more phosphorylated (Fig 3E, lanes 2 and 3).
GST-p12 proteins were expressed in 293T cells from pCAGGS/GST-derived plasmids by transient transfection using Turbofect (Thermo Fisher Scientific). Approximately 24 h after transfection, cells were changed into fresh media containing either 400 ng/ml nocodazole (Sigma) or 2 μg/ml aphidicolin (Sigma) and incubated overnight at 37°C. The synchronisation of the cell cultures after drug treatment was assessed by propidium iodide staining and cell cycle phase analysis by flow cytometry. […] ProQ diamond and Sypro ruby staining (Thermo Fisher Scientific) of gels was visualised and quantified on a ChemiDoc imaging system (Bio-Rad).

[3] = tested on: GST-p12 phosphorylation in 293T cells; experiment: nano LC-MS/MS phosphopeptide identification of GST-p12; type: cell-based
Excerpt: We next used nanoscale liquid chromatography coupled to tandem mass spectrometry (nano LC–MS/MS) to identify phosphopeptides of GST-p12_WT precipitated from 293T cells. The phosphorylation sites in the high confidence tryptic-peptides (<1% false discovery rate, FDR) were assigned using the probability-based phosphoRS algorithm (Table 1). A peptide was counted as being phosphorylated at a specific residue if its phosphoRS site probability was >50%. For each tryptic peptide, the phosphorylation level at a particular site was estimated by dividing the phosphorylated peptide count by the total peptide count. This analysis, carried out with two biological replicates, confirmed S61 to be the main site of phosphorylation on GST-p12_WT, with ~45% of S61-containing peptides phosphorylated at this residue (Table 1). We also identified T52, S65, S78, T80 and S81 as additional sites of low-level phosphorylation on p12 (Table 1). […] The absence of a detectable association between GST-p12 and mitotic chromatin is therefore unlikely to result from a lack of phosphorylation of recombinant p12.
To identify phosphopeptides of GST-p12, bead eluates were separated by SDS-PAGE and stained using SimplyBlue safe stain (Thermo Fisher Scientific). The band corresponding to GST-p12 was then excised and submitted for nano-LC-MS/MS analysis as described in [54], but without phosphopeptides enrichment. The probability-based phosphoRS algorithm was used for assigning phosphorylation sites in the detected peptides.

B1: GST-p12_WT: N-terminally GST-tagged Mo-MLV p12 (protein)
chain: PALTPSLGAKPKPQVLSDSGGPLIDLLTEDPPPYRDPRPPPSDRDGNGGEATPAGEAPDPSPMASRLRGRREPPVADSTTSQAF
modifications: left off: GST, N-terminal, kept
notes: N-terminally GST-tagged Mo-MLV p12
Question: How did the “binding to DNA-coated beads” value [1] turn out when B1 was run?
Answer: no binding to DNA was observed

Question: And the “phosphorylation at mitosis in comparison to interphase” value [2]?
Answer: 3–4 fold

Question: And the “Fraction of phosphorylated peptides” value ([3]; S61, peptide aa 36–66, 1 missed cleavage, replicate R1)?
Answer: 0.47

Question: What about the “Fraction of phosphorylated peptides” value ([3]; S61, peptide aa 36–66, 1 missed cleavage, replicate R2) of the same molecule?
Answer: 0.52

Question: And the “Fraction of phosphorylated peptides” value ([3]; S61, peptide aa 45–66, 0 missed cleavages, replicate R1)?
Answer: 0.36

Question: What about the “Fraction of phosphorylated peptides” value ([3]; S61, peptide aa 45–66, 0 missed cleavages, replicate R2) of the same molecule?
Answer: 0.49

Question: What about the “Fraction of phosphorylated peptides” value ([3]; S65, peptide aa 45–66, 0 missed cleavages, replicate R1) of the same molecule?
Answer: 0.01

Question: And the “Fraction of phosphorylated peptides” value ([3]; S65, peptide aa 45–66, 0 missed cleavages, replicate R2)?
Answer: 0.07

Question: What about the “Fraction of phosphorylated peptides” value ([3]; S78, peptide aa 72–84+ linker, 0 missed cleavages, replicate R1) of the same molecule?
Answer: 0.03

Question: What about the “Fraction of phosphorylated peptides” value ([3]; S78, peptide aa 72–84+ linker, 0 missed cleavages, replicate R2) of the same molecule?
Answer: 0.03

Question: And the “Fraction of phosphorylated peptides” value ([3]; S81, peptide aa 71–84+ linker, 1 missed cleavage, replicate R1)?
Answer: 0.10

Question: What about the “Fraction of phosphorylated peptides” value ([3]; S81, peptide aa 72–84+ linker, 0 missed cleavages, replicate R1) of the same molecule?
Answer: 0.03

Question: What about the “Fraction of phosphorylated peptides” value ([3]; S81, peptide aa 72–84+ linker, 0 missed cleavages, replicate R2) of the same molecule?
Answer: 0.01

Question: And the “Fraction of phosphorylated peptides” value ([3]; T52, peptide aa 45–66, 0 missed cleavages, replicate R1)?
Answer: 0.13

Question: What about the “Fraction of phosphorylated peptides” value ([3]; T52, peptide aa 45–66, 0 missed cleavages, replicate R2) of the same molecule?
Answer: 0.04

Question: What about the “Fraction of phosphorylated peptides” value ([3]; T80, peptide aa 71–84+ linker, 1 missed cleavage, replicate R1) of the same molecule?
Answer: 0.04

Question: And the “Fraction of phosphorylated peptides” value ([3]; T80, peptide aa 72–84+ linker, 0 missed cleavages, replicate R1)?
Answer: 0.01
